Experimental data as given in paper PMC3077550 (Nature cell biology, 2011).

T1: GST-BIN2 (Arabidopsis thaliana, UniProt Q39011 1-380)
T1 sequence (looked up): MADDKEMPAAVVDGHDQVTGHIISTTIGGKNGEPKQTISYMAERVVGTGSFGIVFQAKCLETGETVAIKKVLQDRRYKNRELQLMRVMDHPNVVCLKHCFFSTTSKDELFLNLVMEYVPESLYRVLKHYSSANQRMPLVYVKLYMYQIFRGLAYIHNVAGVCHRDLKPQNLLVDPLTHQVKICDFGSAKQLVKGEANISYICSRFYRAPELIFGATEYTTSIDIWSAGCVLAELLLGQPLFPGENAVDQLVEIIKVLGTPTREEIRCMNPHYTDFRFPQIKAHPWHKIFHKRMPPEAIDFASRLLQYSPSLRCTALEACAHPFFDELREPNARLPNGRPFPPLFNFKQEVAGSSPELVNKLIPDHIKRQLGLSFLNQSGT

T2: GST-PP2AB’α (Arabidopsis thaliana, UniProt O04375 1-495)
T2 sequence (looked up): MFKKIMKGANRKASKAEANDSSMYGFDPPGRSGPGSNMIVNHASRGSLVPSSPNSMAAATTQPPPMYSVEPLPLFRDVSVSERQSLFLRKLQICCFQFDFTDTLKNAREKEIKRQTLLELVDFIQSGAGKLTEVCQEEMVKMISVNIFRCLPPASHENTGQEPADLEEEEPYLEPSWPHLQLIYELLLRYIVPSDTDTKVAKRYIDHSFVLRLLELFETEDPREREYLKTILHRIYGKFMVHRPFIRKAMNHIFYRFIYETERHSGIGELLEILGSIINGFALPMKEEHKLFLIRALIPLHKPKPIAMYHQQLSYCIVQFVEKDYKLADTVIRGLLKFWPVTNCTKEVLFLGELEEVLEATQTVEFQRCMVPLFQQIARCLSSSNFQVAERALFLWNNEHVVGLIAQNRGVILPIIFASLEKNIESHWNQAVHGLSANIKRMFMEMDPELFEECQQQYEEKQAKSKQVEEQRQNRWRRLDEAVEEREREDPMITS


Key:
GST-BIN2 = molecular target: T1, GST-BIN2; test: far-Western, overlay or dot blot
GST-PP2AB’α = molecular target: T2, GST-PP2AB’α; test: far-Western, overlay or dot blot

binding result (GST-BIN2) | binding result (GST-PP2AB’α) | Binder
binds | binds | MBP-BZR1 (unphosphorylated) (natural protein, Arabidopsis thaliana, UniProt Q8S307 1-336, looked up) MTSDGATSTSAAAAAAAAAAARRKPSWRERENNRRRERRRRAVAAKIYTGLRAQGDYNLPKHCDNNEVLKALCVEAGWVVEEDGTTYRKGCKPLPGEIAGTSSRVTPYSSQNQSPLSSAFQSPIPSYQVSPSSSSFPSPSRGEPNNNMSSTFFPFLRNGGIPSSLPSLRISNSCPVTPPVSSPTSKNPKPLPNWESIAKQSMAIAKQSMASFNYPFYAVSAPASPTHRHQFHTPATIPECDESDSSTVDSGHWISFQKFAQQQPFSASMVPTSPTFNLVKPAPQQMSPNTAAFQEIGQSSEFKFENSQVKPWEGERIHDVGMEDLELTLGNGKARG
binds | binds | MBP-bzr1-1D (natural protein, Arabidopsis thaliana, UniProt Q8S307 1-336, looked up) MTSDGATSTSAAAAAAAAAAARRKPSWRERENNRRRERRRRAVAAKIYTGLRAQGDYNLPKHCDNNEVLKALCVEAGWVVEEDGTTYRKGCKPLPGEIAGTSSRVTPYSSQNQSPLSSAFQSPIPSYQVSPSSSSFPSPSRGEPNNNMSSTFFPFLRNGGIPSSLPSLRISNSCPVTPPVSSPTSKNPKPLPNWESIAKQSMAIAKQSMASFNYPFYAVSAPASPTHRHQFHTLATIPECDESDSSTVDSGHWISFQKFAQQQPFSASMVPTSPTFNLVKPAPQQMSPNTAAFQEIGQSSEFKFENSQVKPWEGERIHDVGMEDLELTLGNGKARG
